The target of assay [1] is T1, commercial GDF15 recombinant protein (R&D, 9279-GD) (UniProt Q99988 197-308).
T1 chain: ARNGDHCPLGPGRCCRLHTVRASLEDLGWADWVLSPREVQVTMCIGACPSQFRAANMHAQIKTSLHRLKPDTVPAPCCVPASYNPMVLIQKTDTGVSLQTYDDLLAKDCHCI
Description: SPR.

The target of assay [2] is T1, commercial GDF15 recombinant protein …. Description: SPR.

Where two headings read alike, the source gives them in different places.

B1: anti-GDF15 neutralizing monoclonal antibody G2 (antibody, V domains shown)
VH: QVQLQQSGAELARPGASVKLSCKASGYTFTDYYINWVKQRTGQGLEWIGEIYPGSGNTYYNEKFKGKATLTADKSSSTAYMQLSSLTSEDSAVYFCARVRALLRPLAMDYWGQGTSVTVSS
VL: QIVLSQSPAILSASPGEKVTMTCRASSSVSYMHWYQQKPGSSPKPWIYATSNLASGVPARFSGSGSGTSYSLTISRVEAEDAATYYCQQWSSNPPFTFGSGTKLEIK
Consider B1, for which the Kd in assay [1] came out at 572 nM.

B2: anti-GDF15 neutralizing monoclonal antibody G1 (antibody, V domains shown)
VH: DVQLQESGPGLVKPSQSLSLTCTVTGYSITSAYAWNWIRQFPGNKLEWMGYISYSGSTSYNPSLKSRISITRDTSKNQFFLQFNSVTTEDTATYYCARGGDAEDYWGQGTTLTVSS
VL: DIQMTQSPASLSVSVGETVTITCRASENIYSNLAWFQQKQGKSPQLLVYVATNLVDGVPSRFSGSGSGTQYSLKINSLQSEDFGTYYCQHFWGTPWTFGGGTKLEIK
In the case of B2, the Kd in assay [2] was found to be 71.4 nM.

(Values after patent US12630620 (dated 2026).)
